Laboratory results published in the RNAGym collection of RNA variant scans (doi:10.1073/pnas.2313332121).
Fewer inactive variants are shown than the library holds.

B1: TPR 5TU (parent)
chain: GGAUCUUCUCGAUCUAACAAAAAAGACAAAUCUGCCACAAAGCUUGAGAGCAUCUUCGGAUGCAGAGGCGGCAGCCUUCGGUGGCGCGAUAGCGCCAACGUUCUCAACUAUGACACGCAAAACGCGUGCUCCGUUGAAUGGAGUUUAUCAUG

Variants of: B1
Test: polymerase ribozyme fitness, log enrichment relative to wild type (log ratio); higher = more active; in vitro selection for triplet polymerase activity
Method in brief: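 To select mutant libraries of each subunit of a heterodimeric triplet polymerase ribozyme, built by PCR and transcribed, each was annealed with a biotinylated primer, partner subunit and triplets, then incubated frozen at −7 °C. Extended constructs were gel-excised, captured on streptavidin beads and amplified by RT-PCR, in one round carried out in triplicate. Illumina sequencing of input and output libraries kept genotypes with ≥10 input reads and ≥1 read per output. Fitness is the base-2 logarithm of genotype enrichment relative to wild-type enrichment, from inverse-variance-weighted replicate averages.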

Row | Variant | polymerase ribozyme fitness (log ratio)
1 | GGAUCUUCUCGAUCUAACAAAAAAGACAAAUCUGCCACAAUGCUUGAGAGCAUCAUCGGAUGCAGAGGCGGCAGCCUUCGGUGGAGCGAUAGCGCCAACGUUCUCAACUAUGACACGCAAAACGCGUGCUCCGUUGAAUGGAGUUUAUCUUG | -2.65
2 | GGAUCUUCUCGAUCUAACAAAAAAGACAAAUCUGCCACAAAGCUUGAGAGCAUCUUCGGAUCCAGAGGCGGCAGCCUUCGGUGGCGCGAUAGUGCCAACGUUCUCAACUAUGACACGCAAAACGCGUGCUCCGUAGAAUGGAGUUUAUCAUG | -3.41
3 | GGAUCUUCUCGAUCUAACAAAAAAGACAAAUCUGCCACAAAGCUUGAGAUCAUCUUCGGAUGCAGAGGCGGCAGGCUUCGGUGGCUAGUUAGCGCCAACGUUCUCAACUAUGACACGCAAAACGCGUGCUCCGUUGAAUGGAGUUUAUCAUG | ≤ -4.2
4 | GGAUCUUCUCGAUCUAACAAAAAAGACAAAUCUGCCACAAAGCUUGAGAGCAUCUUCGGAUGCAGAGGCGGCAGCCUUCGGGGGCGCGAUAGCGACAACGUUCUCAACUAUGACACGCAAAACGCGUGCUCCGUUGAAUGGAGUUUAUCAUG | -1.03
5 | GGAUGUUCUCGAUCUAACAAAAAAGACAAAUCUGCUACAAAGCUUGAGAGCAUCUUCGGAUGCAGAGGCGGCAGCCUUCGGUGGCGCGAUAGCGCGAACGUUCUCAACUAUGACACGCAAAACGCGUGCUCCGUUGAAUGGAGUUUAUCAUG | -2.51
6 | GGAUCUUCUCGAUCUAACAAAAAAGACAAAUCUGCCACCAAGCUUGAGAGUAUCUUCGGAUGCAGAGGCGGCAGCCUUCGGUGGCGCGAUAGCGCCAACGUUCUUAACUAUGACACGUAAAACGCGUGCUCCGUUGAAUGGAGUUUAUCAUG | -3.78
7 | GGAUCUUCUCGUUCUAACAAAACAGACAAAUCUGCCACAAAGCUUGAGAGCAUUUUCGGAUGCAGAGGCGGCAGCCUUCGGUGGCGCGAUAGCGCCAACGUUCUCAACUAUGACAGGCAAAACGCGUGCUCCGUUGAAUGGAGUUUCUCAAG | ≤ -4.2
8 | GGAUCUUCUCGAUCUAACAAAAAAGACAAAUCUGCCACAAAGCUUGAGAGCAUCUUCAGAUGCAGAGGCGGCAGCCUUCGGUAGCGCGAUAGCGCCAACGUUCUCAACUAUGACACGCAAAACGCGUGCUCCGUUGAAUGGAGUUUCUCAUG | -0.252
9 | GGAUCUUCUCGAUCUAACAAAAAAGACAAAUCUGCCACAAAGCUUGAGAGCAUCUUCGGAUGCAGAGGCGGCAGCCUUCGGUGGCACGAUAGCGCCAACGUUCUCAACUUUGACACGCAAAACGCGUGCUCCGUUGAGUGGAGUUUAUCAUG | ≤ -4.2
10 | GGAUCUUCUCGCUCUAACAAAAAAGACAAUUCUGCCUCAAAGCUUGAGUGCAUCUUUGGAUGCAGAGGCGGCAGCCUUCGGUGGCGCGAGUGCGCCAACGUUCUCAUCUAUGACACGCAAAACGCGUGCUCCGUUGAAUGGAGUUUAUCAUG | ≤ -4.2
11 | GGAUCUUCUCGAUCCAACAAAAAAGACAAAUCUGCCAUAAAGCUUGAGAGCAUCUUCGGAUGCAGAGGCGGCAGCCUUCGGUGGCUCGAUUGCGCCAACGUUCUCAACUAUGACACGCAAAACGCUUGCUCCGGUGAAUGGGGUUUAUCAUG | ≤ -4.2
12 | GGAUCUUCUCGAUCUAACAAAAAAGACAAAUCUGCCCCAAAGCUUGAGCGCAUAUUCGGAUGCAGAGGCGGCAGCCUGCGGUGGCGCGAUAGUGCCAACGUUCUCAACUAUGACACGCAAAACACGUGCUCCGUUGAAUGGAGUUUAUCAUG | ≤ -4.2
13 | GGAUCUUCUCGAUCUAACAAAAAAGACAAAUCUGCCACAAAGCUUGAGAGCAUCUUCGGAUGCAGAGGCGGCAGCCUUCGGUGGCGCUAUAGCGCCAACGUUCUCAACUAUGACAUGCAAAACGCGUGCUCCGUUGCAUGGAGUUUAUGAUG | ≤ -4.2
14 | GGAUCUUCUCGGUCUAACAAAAAAGACAAAUCUGCCACAAAGCUUGAGAGCAUCUACGGAUGCAGAGGCGGCAGCCUUCGGUGGCGCGAUAGCGCCAACGUUCUCAACUAUGACACGCAAAACGCGUGCUCCGUUGAAUGGAGAUUAUCAUG | 0.103
15 | GGAUCUUCUCGAUCUAACAAAAAAGACAAAUCUGCCACGAAACUUGAGAGCAUCUUCGGAUGCAGAGGCGGCAGCCUUCGGUGGCGCCAUAGCGCCAACGUUCUCAACUAUGACACGCAAAACGCGUGCUCCGUUGAAUGGAGUUUAUCAUG | ≤ -4.2
16 | GGAUCUUCUCGAUCUAACAAAAAAGACAAAUCUGCAACAAAGCUUGAGAGCAUCUUCGGAUCUAGAGGCGGCAGCCUUCGGUGGCGCGAUAGCGCCAACGUUCUCAACUAUGACACGCAAAACGCGUGCUCCGUUGAAUGGAGUUUAUCAUG | ≤ -4.2
17 | GGAUCUUCUCGAUCUAACAAAAAAGACAAAUCUGCCACAAAGCUUGAGAGCAUCUUCGGAUGCAGAGGCGGCAGCCUUCGGUGGCGCGAUAGCGCGAACGUUCUCAGCUAUGACACGCAAAACGCGUGCUCCGUUGAAUGGAGUUUAUCAUG | ≤ -4.2
18 | GGAUCUUCUCGAUCUAACAAAAAAGACAAAUCUGCCACAAAGCUUGAGAGCAUCUUCGGAUGCAGAGGCGCCAGCCUUCGGUGGUGCGAUAGCGCCAACGUUCUCAACUAUGACACGCAAAACGCGUGCUCCGUUGAAUGGAGUUUAUCAUG | -3.27
19 | GGAUCUUCUCGAUCUAACAAAAAAGACAAAUCUGCCACAAAGCUUGAGAGCCUCUUCGGAUGCAGAGGCGGCAGCCUUCGGUGGCGCGAUAGCGCCAAGGUUCUCAACUAUGACACGCAAAACGCGUGCUCCGUUGAAUGGAGUUUAUCAUG | -4.11

Row | Variant | polymerase ribozyme fitness (log ratio)
20 | GGAUCUUGUCGACCUAUCAAAAAAGACAUAUCUGCCAUAAAGCAUGAGAGCAUCUUCGGAUGCAGAGGCGGCAGCCUUCGGUGUCGGGAUAACGCCAACGUUCUCAACUAUGACACGCAAAACGCGUGCUCCGUUGAAUAGAGUUUAUCAUG | ≤ -4.2
21 | GGAUCGUCCCGCUCUAACAAAAAAGACAAAUCUGCCACAAAGCUAGAGAGCAUCUUCGGAUGCAGAGGCGGCAGCGUUCGGUGGCGCGAUCGCGCGAACGUUCUCAACUAUGACACGCAAAACGCGUGCUCCGUUGAAUGGAGUUUAUCAUG | ≤ -4.2
22 | GGAUCUUCUCGAUCUAACAAAAAAGACAAAUCUGCCACAUAGCUUGAGAGCAUUUUCGGAUGCAGAGGCGUCAGCCUUCGGUGGCGCGAUAGCGACAACGUUCUCAACUAUGACACGCAAAACGCGUGCUCCGUUGAAUGGAGUUCAUCAUA | ≤ -4.2
23 | GGAUCUUCUCGAUCUAACAAAAAAGACAAAUCUGCCACAAAGCUUGAGAGCAUCUUCGGUUGCAGAGGCGGCAGCCUUCGGUGGCGCGAUAGCGCCAACGUUCUCAACUAUGACACGCAAAACGCGUGCUCCGUUGAAAGGAGUUUAUCUUG | ≤ -4.2
24 | GGAUCUUCUCGAUCAAACCAAAAAGACAUAUCUGCCACAAAGCUUGAGAACAUCUUCGGAUGCAGAGGCGGCAGCCUUCGGUGGCGCGAUAGCGUCAACGUUCUCAACUAUGACACGCAAAACGCGUGCUCCGUUGAAUGGUGUUUAUCAUG | ≤ -4.2
25 | GGAUCUUCUCGAUCUAACAAAAAAGACAAAUCUGCCACAAAGCUUGAGAGCAUCUUCGGAUGGACAGGCGGCAGCCUUCGGUGGCGCGAUAGGGCCAACGUUCUCAACUAUGACACGCAAAACGCGUGCUCCGUUGCAUGGUGUUUAUCAUG | ≤ -4.2
26 | GGAUCUUCUCGCUCUAACAAAAAAGACAAAUCUGCCACAGUGCUUGAGAGCCUUUUCGGAUGCAGGGGCGGCAGCCUUCGGUGGCGCGAUAGCGUCAACGUUCUCAACUAUGACACGCAAAACGCGUGCUCCGUUGAAUGGAGUUUAUCAUG | ≤ -4.2
27 | GGAUCUUCUCGAUCUAUCAAAAAAGACAAAUCUGCCACAAAGCUUGAGAGCAUCUUCGGAUGCACAGGCGGCAGCCUUCGGUGGCGCGUUAGGGCCAACGUUCUCAACUAUCACACGCAAAACGCGUGCUCCGUUGAAUGGAGUUUAUCAUG | ≤ -4.2
28 | GGAUCUUCUCGAUCUAACAAAAAAGACAAAUCUGCCACAAAGCUUGAGAGCAUCUACGGAUGCAGAGGCGGCAGCCUUCGGUGACGCGAUAGCGCCAACGUUCUCAACUAUGACACGCAAAACGCGGGCUCCGUUGAAUGGAGUUUAUCAUG | -3.06
29 | GGAUCUUCUCGAUCUAACAAAAAAGAGAAAUCUGCCACAACGCUUGAGAGCAUGUUCGGAUGCAGAGGCGGCAGCCUUCGGUGGCGGGAUAGCGCCAACGUUCUCAACUAUGAGACGCAAAACGAGUGCUCCGUUGAAUGGAGUUUAUCAUG | ≤ -4.2
30 | GGAUCUUCUCGAUCUAACAAAAGAGACAAAUCUGCUACAAAGCUUGAGAUCAUCUUCGGAUGCAGAGGCGGCAGCCUUCGGUGGCGCGAUAGCGCCAACAUUCUCAGCUAUGACACGGAAAACGCGUGCUCCGUUGAAUGGAGUUUAUCAUG | ≤ -4.2
31 | GGAUCUUCUCGAUCUAACAAAAAAGAUAAAUCUGCCACAAAGCUUGAGAGCAUCUUCGGAUGCAGAGGCGGCAGCCUUCGGUGGCGCGAUAUCGCCAACGUUCUCAACUAUGACACGCAAAACGCGUGCUCCGUUGAAUGGAGUUUAUCAUG | -1.78
32 | GGAUCUUCUCGAUCUAACAAUAAAGACAAAUCUGCCACAAAGCUUGAGAGCAUCGUCGGAUGCAGAGGCAGCAGCCUUCGGUGGCGCGAUAGAGCCAACGUUCUCAACUAUGACACGCAAAACGCGUGCUCCGUUGAAUGGAGUUUAUCAUG | ≤ -4.2
33 | GGAUCUUCUCGAUCUAACAUAAAAGACAAAUCUGCCAUAAAGCUUGAGAGCAUCUUCGGAUGCAGAGGCGGCAGACUUCGGUGGCGGGAUAGCGCCAACGUUCUCAUCUAUGACACGCAAAACGCGUGCUCUGUUGAAUGGAGUUUAUCAUG | ≤ -4.2
34 | GGAUCUUCUCGAUCUAACAAAAAAGACAAAUCUGCCACAAAGCUUGAGAGCAUCUUCGGAUGCAGAGGCGGCAGCCUUCGGUGGCGCGAUAGCGCCAACGUUGUCAACUAUGACACUCAAAACGCGUGCUCCGUUGAAUGGAGUUUAUCAUG | -0.61
35 | GGAUCUUCUCGAUCUAACCAAAAAGACAAAUCUGCCACAAAGCUUGAGAGCAUCUUCGGAUCCAGAGGCGGCAGCCUUCGGUGACGCGGUAGCGCCAACGUUCUCAACUAUGACACACAAAACGCGUGCUCCGUUGAAUGGAGUUUAUCAUG | -2.57
36 | GGAUCUUCUCGAUCUAACAAAAAAGACAAAUCUGCCACAAAGCUUGAGAGCAUAUUCGGAUGCAGAGGCGGCAGCCUUCGGUGGCGCGUUACCGCCAACGUUCUCAACUAUGACACGCAAUACGCGUGCUCCGUUGAAUGGAGUUUAUCAUG | -3
37 | GGAUCUUCUCGAUCUAACAAAAAAGACAAAUCUGCCACAAAGCUUGAGAGCAUCAUAGGGUGCAGAGGCGGCUGCCUUCGGUGGCGCGAUAGCGCCAACGUUCUCAACUAUGACACGCAAAACGCGUGCUCUGUUGAAUGGAGUGUAUCAUG | -2.26
38 | GGAUCUUCUCGAUCUAACAAAAAAGACAAAUCUGCCACAAAGCUUGAGCGCAUCUUCGGAUGCAGAGACGGCAGCCUUCGGUGGCGCGAUAGCGCCAACGUGCUCAGCUAUGACACGCAAAACGCGUGCUCCGUUGAAUGGAGUUUAUCAUG | ≤ -4.2
